Experimental data as given in patent US20160207963A1 (GlaxoSmithKline, published 2016).

B1: 1A2 Fab (Fab, V domains shown)
VH: EVQLQQSGPELVKPGASVKMSCKASGYTFTSFIMYWVKQKPGQGLEWLGYIDPYNDGTKYNEKFEGKATLTSDKSSSTAYMELSSLTSEDSAVYYCAKRGNYGNGFAYWGQGTLVTVSA
VL: DIVMTQSQKFVSTSVGDRVSVTCKASQNVGSNVAWYQHKPGHSPTALIYSASHRYSGVPDRFTGSESGTDFTLTISNVQSEDLAEYFCQQYYSYPYTFGGGTKLEIKR
B2: mouse IgG 1A2 (antibody, V domains shown)
VH: B1 VH
VL: B1 VL

How the values were obtained:
[1] = target: purified, his-tag depleted, recombinant Viet04 HA trimers (influenza A virus A/Vietnam/1203/04 …, UniProt Q6J8F6 17-531); test: complex formation, size exclusion gel filtration (Superdex 200)
Vietnam Wt (HA1) = Vietnam Wt (HA1) (influenza A virus A/Vietnam/1203/04 …, UniProt Q6J8F6 17-346); test: biolayer interferometry (ForteBio), HA1 on biosensors probed with IgG 10 µg/ml

Row | Binder | binding result [1] | binding result (Vietnam Wt (HA1))
1 | B1 | binds | 
2 | B2 |  | binds
